# Assay results as given in US20190241648A1 (STATEN BIOTECHNOLOGY B V, published 2019).
# Ends that are not written are not given here.
# B1: Llama antibody 5E5 (antibody, V domains shown)
# VH: QLQLVESGGGLVQPGGSLRLSCAASGFTFGTYSMRWVRQVPRKALEWVSSISTDGGGTAYRDSVKGRFTISRDNAKNTLYLQMNNLKPEDTAIYYCVIAGYSDWGQGTQVTVSS
# VL: ATMLTQSPGSLSVVPGESASISCKTSQGLVHSDGKTYFYWFLQKPGQSPQQLIYQVSNRASGVPDRFTGSGSGTDFTLKISGVKAEDAGVYYCAQGTYYPHTFGSGTRLEIK
# notes: detected with goat anti-human IgG (Fc); also called mAb 5E5
# How the values were obtained:
# Assay in all cases: cyclic peptide substitution array
# ApoC3 peptide W65A = biological target: T1, ApoC3 peptide W65A (human, not fully specified; cyclic (thioether))
# T1 peptide: DKFSEFADLDPEV
# Source text: (§1) S62 and D68 of mature huApoC3 were also highly conserved; substitution of S62 by A or V, and substitution of D68 by E or P, caused decrease of spot intensities by ˜60% or higher. […] Amino acid F64 was completely variable.
# (§2) Pre: staining of one of the ApoC3 peptide microarrays was done with the secondary antibody goat anti-human IgG (Fe) DyLight680 (1:5000) and control antibody mouse monoclonal anti-HA (12CA5) DyLight800 (1:2000) to investigate background interactions of the secondary antibody with the antigen-derived peptides that could interfere with the main assays. Subsequent incubation of other ApoC3 peptide microarrays with antibody samples was followed by staining with secondary and control antibodies as well as read-out at scanning intensities of 7/7 (red/green). The additional HA peptides framing the peptide arrays were stained as internal quality control to confirm the assay quality and the peptide microarray integrity.
# ApoC3 peptide P69I = biological target: T2, ApoC3 peptide P69I (human, not fully specified; cyclic (thioether))
# T2 peptide: DKFSEFWDLDIEV
# Source text: as §1, §2
# ApoC3 peptide D68A = biological target: T3, ApoC3 peptide D68A (human, cyclic (thioether))
# T3 peptide: DKFSEFWDLAPEV
# Source text: as §1, §2
# ApoC3 peptide D59L = biological target: T4, ApoC3 peptide D59L (human, thioether (positions not given here); not fully specified (C-terminus, bridges))
# T4 peptide: LKFSEFWDLDPEV
# Source text: as §1, §2
# ApoC3 peptide V71P = biological target: T5, ApoC3 peptide V71P (human, not fully specified; cyclic (thioether))
# T5 peptide: DKFSEFWDLDPEP
# Source text: as §1, §2
# ApoC3 peptide K60W = biological target: T6, ApoC3 peptide K60W (human, cyclic (thioether))
# T6 peptide: DWFSEFWDLDPEV
# Source text: as §1, §2
# ApoC3 peptide P69G = biological target: T7, ApoC3 peptide P69G (human, not fully specified; cyclic (thioether))
# T7 peptide: DKFSEFWDLDGEV
# Source text: as §1, §2
# ApoC3 peptide E63I = biological target: T8, ApoC3 peptide E63I (human, cyclic (thioether))
# T8 peptide: DKFSIFWDLDPEV
# Source text: as §1, §2
# ApoC3 peptide D66C = biological target: T9, ApoC3 peptide D66C (human, not fully specified; cyclic (thioether))
# T9 peptide: DKFSEFWCLDPEV
# Source text: as §1, §2
# ApoC3 peptide D68L = biological target: T10, ApoC3 peptide D68L (human, cyclic (thioether))
# T10 peptide: DKFSEFWDLLPEV
# Source text: as §1, §2
# ApoC3 peptide E63G = biological target: T11, ApoC3 peptide E63G (human, not fully specified; cyclic (thioether))
# T11 peptide: DKFSGFWDLDPEV
# Source text: as §1, §2
# ApoC3 peptide D59G = biological target: T12, ApoC3 peptide D59G (human, thioether (positions not given here); not fully specified (C-terminus, bridges))
# T12 peptide: GKFSEFWDLDPEV
# Source text: as §1, §2
# ApoC3 peptide L67P = biological target: T13, ApoC3 peptide L67P (human, thioether (positions not given here); not fully specified (bridges); also: thioether between a C-terminal Cys side chain and a modified N-terminus, the Cys is not in the chain)
# T13 peptide: DKFSEFWDPDPEV
# Source text: as §1, §2
# ApoC3 peptide F64T = biological target: T14, ApoC3 peptide F64T (human, thioether (positions not given here); not fully specified (bridges); also: cyclic (thioether), positions not given here)
# T14 peptide: DKFSETWDLDPEV
# Source text: as §1, §2
# ApoC3 peptide D59V = biological target: T15, ApoC3 peptide D59V (human, thioether (positions not given here); not fully specified (C-terminus, bridges); also: cyclised via thioether between a C-terminal Cys and a modified N-terminus, the Cys and the N-terminal …)
# T15 peptide: VKFSEFWDLDPEV
# Source text: as §1, §2
# ApoC3 peptide S62A = biological target: T16, ApoC3 peptide S62A (human, not fully specified; cyclic (thioether))
# T16 peptide: DKFAEFWDLDPEV
# Source text: as §1, §2
# ApoC3 peptide E63R = biological target: T17, ApoC3 peptide E63R (human, cyclic (thioether))
# T17 peptide: DKFSRFWDLDPEV
# Source text: as §1, §2
# ApoC3 peptide F61G = biological target: T18, ApoC3 peptide F61G (human, cyclic (thioether))
# T18 peptide: DKGSEFWDLDPEV
# Source text: as §1, §2
# ApoC3 peptide D59P = biological target: T19, ApoC3 peptide D59P (human, thioether (positions not given here); not fully specified (C-terminus, bridges); also: cyclised via thioether between a C-terminal Cys and a modified N-terminus, the Cys and the N-terminal …)
# T19 peptide: PKFSEFWDLDPEV
# Source text: as §1, §2
# ApoC3 peptide D68K = biological target: T20, ApoC3 peptide D68K (human, cyclic (thioether))
# T20 peptide: DKFSEFWDLKPEV
# Source text: as §1, §2
# ApoC3 peptide F64C = biological target: T21, ApoC3 peptide F64C (human, cyclic (thioether))
# T21 peptide: DKFSECWDLDPEV
# Source text: as §1, §2
# ApoC3 peptide S62M = biological target: T22, ApoC3 peptide S62M (human, thioether (positions not given here); also: cyclic (thioether), ring places not given here)
# T22 peptide: DKFMEFWDLDPEV
# Source text: as §1, §2
# ApoC3 peptide E70Y = biological target: T23, ApoC3 peptide E70Y (human, cyclic (thioether))
# T23 peptide: DKFSEFWDLDPYV
# Source text: as §1, §2
# ApoC3 peptide V71T = biological target: T24, ApoC3 peptide V71T (human, not fully specified; cyclic (thioether))
# T24 peptide: DKFSEFWDLDPET
# Source text: as §1, §2
# ApoC3 peptide F61R = biological target: T25, ApoC3 peptide F61R (human, cyclic (thioether))
# T25 peptide: DKRSEFWDLDPEV
# Source text: as §1, §2
# ApoC3 peptide F64M = biological target: T26, ApoC3 peptide F64M (human, thioether (positions not given here); not fully specified (bridges); also: cyclic (thioether), positions not given here)
# T26 peptide: DKFSEMWDLDPEV
# Source text: as §1, §2
# ApoC3 peptide P69Y = biological target: T27, ApoC3 peptide P69Y (human, not fully specified; cyclic (thioether))
# T27 peptide: DKFSEFWDLDYEV
# Source text: as §1, §2
# ApoC3 peptide W65M = biological target: T28, ApoC3 peptide W65M (human, cyclic (thioether))
# T28 peptide: DKFSEFMDLDPEV
# Source text: as §1, §2
# ApoC3 peptide S62V = biological target: T29, ApoC3 peptide S62V (human, thioether (positions not given here); also: cyclic (thioether), ring places not given here)
# T29 peptide: DKFVEFWDLDPEV
# Source text: as §1, §2
# ApoC3 peptide F61Q = biological target: T30, ApoC3 peptide F61Q (human, cyclic (thioether))
# T30 peptide: DKQSEFWDLDPEV
# Source text: as §1, §2
binder,measurement,setting,value
B1,% of binding to wild-type peptide,ApoC3 peptide W65A,0%
same,% of binding to wild-type peptide,ApoC3 peptide P69I,48%
same,% of binding to wild-type peptide,ApoC3 peptide D68A,1.75%
same,% of binding to wild-type peptide,ApoC3 peptide D59L,33.6%
same,% of binding to wild-type peptide,ApoC3 peptide V71P,173%
same,% of binding to wild-type peptide,ApoC3 peptide K60W,41.9%
same,% of binding to wild-type peptide,ApoC3 peptide P69G,24.6%
same,% of binding to wild-type peptide,ApoC3 peptide E63I,0%
same,% of binding to wild-type peptide,ApoC3 peptide D66C,10.3%
same,% of binding to wild-type peptide,ApoC3 peptide D68L,0%
same,% of binding to wild-type peptide,ApoC3 peptide E63G,0%
same,% of binding to wild-type peptide,ApoC3 peptide D59G,60.3%
same,% of binding to wild-type peptide,ApoC3 peptide L67P,25.5%
same,% of binding to wild-type peptide,ApoC3 peptide F64T,467%
same,% of binding to wild-type peptide,ApoC3 peptide D59V,43.3%
same,% of binding to wild-type peptide,ApoC3 peptide S62A,29.6%
same,% of binding to wild-type peptide,ApoC3 peptide E63R,2.19%
same,% of binding to wild-type peptide,ApoC3 peptide F61G,0.74%
same,% of binding to wild-type peptide,ApoC3 peptide D59P,69.3%
same,% of binding to wild-type peptide,ApoC3 peptide D68K,0.04%
same,% of binding to wild-type peptide,ApoC3 peptide F64C,51%
same,% of binding to wild-type peptide,ApoC3 peptide S62M,0%
same,% of binding to wild-type peptide,ApoC3 peptide E70Y,50.7%
same,% of binding to wild-type peptide,ApoC3 peptide V71T,96.7%
same,% of binding to wild-type peptide,ApoC3 peptide F61R,2.77%
same,% of binding to wild-type peptide,ApoC3 peptide F64M,132%
same,% of binding to wild-type peptide,ApoC3 peptide P69Y,15.4%
same,% of binding to wild-type peptide,ApoC3 peptide W65M,0%
same,% of binding to wild-type peptide,ApoC3 peptide S62V,30.5%
same,% of binding to wild-type peptide,ApoC3 peptide F61Q,75.6%
